B1: DARC1-60 (N-terminal 60 amino acids of Duffy Antigen/Receptor for Chemokines) with C4A, C51A and C54A, unsulfated (domain or fragment, UniProt Q16570 1-60, looked up)
chain: MGNALHRAELSPSTENSSQLDFEDVWNSSYGVNDSFPDGDYGANLEAAAPAHSANLLDDS

Key:
[1] = biological target: Plasmodium vivax Duffy-Binding Protein region II (RII-PvDBP), amino acids 211-525 (Plasmodium vivax) (UniProt P22290); assay: AUC
[2] = biological target: Plasmodium vivax Duffy-Binding Protein region II (RII-PvDBP), amino acids 211-525 (Plasmodium vivax, UniProt P22290 211-525); assay: ITC
Plasmodium vivax Duffy-Binding Protein region II (RII-PvDBP), amino acids 211-525, sequence (P22290 211-525): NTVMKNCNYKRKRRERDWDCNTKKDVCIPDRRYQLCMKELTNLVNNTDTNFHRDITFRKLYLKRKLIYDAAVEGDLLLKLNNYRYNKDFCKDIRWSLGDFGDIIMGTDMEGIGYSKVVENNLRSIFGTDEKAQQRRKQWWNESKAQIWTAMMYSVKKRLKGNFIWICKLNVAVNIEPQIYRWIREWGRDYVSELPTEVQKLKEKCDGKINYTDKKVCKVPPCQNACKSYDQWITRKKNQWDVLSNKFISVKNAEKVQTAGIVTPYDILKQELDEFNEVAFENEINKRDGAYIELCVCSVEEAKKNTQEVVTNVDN

| Molecule | stoichiometry N [1] | stoichiometry N [2] |
| --- | --- | --- |
| Plasmodium vivax Duffy-Binding Protein region II (RII-PvDBP), amino acids 211-525 (from UniProt P22290 211-525) (domain or fragment) | 2 | – |
| B1 | – | 1 |
